Assay results taken from PMC4850058, “TRIP6 antagonizes the recruitment of A20 and CYLD to TRAF6 to promote the LPA2 receptor-mediated TRAF6 activation” (Cell Discovery, 2016).

Biological target: T1, purified recombinant TRIP6 (UniProt Q15654 1-476)
T1 construct: TRIP6; source: purified recombinant protein
T1 sequence (looked up): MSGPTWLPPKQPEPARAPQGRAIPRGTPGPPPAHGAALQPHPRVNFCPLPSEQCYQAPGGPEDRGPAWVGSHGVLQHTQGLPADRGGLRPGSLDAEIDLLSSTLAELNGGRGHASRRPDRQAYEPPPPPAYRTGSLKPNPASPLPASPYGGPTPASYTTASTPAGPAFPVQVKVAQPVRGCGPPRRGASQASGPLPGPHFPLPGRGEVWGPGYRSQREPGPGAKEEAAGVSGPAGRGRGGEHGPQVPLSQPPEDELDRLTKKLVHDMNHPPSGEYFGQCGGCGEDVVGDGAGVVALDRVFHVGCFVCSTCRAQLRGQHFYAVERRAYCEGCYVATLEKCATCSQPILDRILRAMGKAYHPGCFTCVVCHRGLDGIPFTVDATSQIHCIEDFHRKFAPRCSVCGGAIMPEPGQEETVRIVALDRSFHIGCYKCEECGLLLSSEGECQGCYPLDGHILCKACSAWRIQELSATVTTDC
Experiment: pull-down; purified recombinant TRIP6 incubated with GST, GST-TRAF6 or GST-CT, 4 °C, 3 h; anti-TRIP6 immunoblot
Settings: both partners purified

B1: GST-CT mutant containing residues 239–530 of TRAF6 (domain or fragment, UniProt P70196 239-530, looked up)
chain: PIPCTFSVFGCHEKMQRNHLARHLQENTQLHMRLLAQAVHNVNLALRPCDAASPSRGCRPEDPNYEETIKQLESRLVRQDHQIRELTAKMETQSMYVGELKRTIRTLEDKVAEMEAQQCNGIYIWKIGNFGMHLKSQEEERPVVIHSPGFYTGRPGYKLCMRLHLQLPTAQRCANYISLFVHTMQGEYDSHLPWPFQGTIRLTILDQSEALIRQNHEEVMDAKPELLAFQRPTIPRNPKGFGYVTFMHLEALRQGTFIKDDTLLVRCEVSTRFDMGGLRKEGFQPRSTDAGV
notes: TRAF6 carboxyl-terminal domain, residues 239-530; also called TRAF6-CT domain; carboxyl-terminal domain; source: purified recombinant GST-tagged protein (pGEX-6P3)
binding result: binds
